Experimental data taken from publication PMC12591035, “Bni5 regulates and coordinates septin architecture and myosin-II functions at the cell division site” (The Journal of Cell Biology, 2025).

T1: His-SUMO-Elm1(421-640) (S. cerevisiae, UniProt P32801 421-640)
T1 construct: Elm1 kinase, S. cerevisiae, residues 421-640 (C-terminal non-kinase domain); Cloned into pET-His6-Sumo-TEV-LIC (Addgene #29659); also called His6-Sumo-Elm1-C; pET-His6-Sumo-Elm1(421-640); source: E. coli Rosetta DE3, purified (His-tag resin, eluted with imidazole); not shown: His6, N-terminal, kept; SUMO, N-terminal, kept
T1 sequence (looked up): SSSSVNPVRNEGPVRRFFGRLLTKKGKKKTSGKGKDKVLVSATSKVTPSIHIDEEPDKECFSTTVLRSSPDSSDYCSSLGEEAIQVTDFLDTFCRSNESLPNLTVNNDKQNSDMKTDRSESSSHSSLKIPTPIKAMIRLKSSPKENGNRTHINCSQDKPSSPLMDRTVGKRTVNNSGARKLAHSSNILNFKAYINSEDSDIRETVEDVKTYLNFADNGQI


Key:
Conditions in all cases: both partners purified
[1] = molecular target: T2, 4-septin complexes/filaments (Cdc11-Cdc12[His6]-Cdc3-Cdc10-Cdc10-Cdc3-Cdc12[His6]-Cdc11) (S. cerevisiae, UniProt P32458 1-415; P32468 1-407; P32457 1-520; P25342 1-322); assay: co-sedimentation; 1.5 μg eluted GST fusion with 1.5 μg concentrated 4-septin or 5-septin complexes/filaments; 50 mM NaCl, 2 mM MgCl2, 15 mM imidazole, 12% glycerol, 50 mM Tris-HCl pH 7.5; 1 h at room temperature; 100,000 x g for 1 h at 4°C; pellet on Coomassie gel and anti-GST blot
T2 construct: Cdc11, S. cerevisiae septin, terminal subunit of the octamer; Cdc12, S. cerevisiae septin; Cdc3, S. cerevisiae septin; Cdc10, S. cerevisiae septin, core subunit; Octamers polymerised into filaments; copies are those of one octamer; The plasmids are from Versele et al., 2004; also called septin filaments made of Cdc11-capped octamers (four septins); four-septin complexes; source: E. coli …

[2] = molecular target: T3, 5-septin complexes/filaments (a mixture of Cdc11-Cdc12[His6]-Cdc3-Cdc10-Cdc10-Cdc3-Cdc12[His6]-Cdc11 and … (S. cerevisiae, UniProt P32458 1-415; Q07657 1-551; P32468 1-407; P32457 1-520; P25342 1-322); assay: as above
T3 construct: Cdc11, S. cerevisiae septin, terminal subunit of the Cdc11-capped octamers; Shs1, S. cerevisiae septin, terminal subunit of the Shs1-capped octamers; Cdc12, S. cerevisiae septin; Cdc3, S. cerevisiae septin; Cdc10, S. cerevisiae septin, core subunit; A mixture of two kinds of octamer, each capped by two copies of either Cdc11 or Shs1; polymerised into filaments; also called septin filaments made …

[3] = molecular target: T1, His-SUMO-Elm1(421-640); assay: pull-down; 3.5 μg GST fusion on glutathione resin with 3.5 μg His6-Sumo-Elm1-C or MBP-Myo1-mTD1; 20 mM MOPS pH 7.0, 1 mM EGTA, 150 mM NaCl, 1 mM DTT, 0.1% NP-40; 1 h; five washes; Coomassie gel and anti-6xHis or anti-MBP blot

T2 sequence (P32458 whole entry, chain 1 of 4, the tested form may be a part): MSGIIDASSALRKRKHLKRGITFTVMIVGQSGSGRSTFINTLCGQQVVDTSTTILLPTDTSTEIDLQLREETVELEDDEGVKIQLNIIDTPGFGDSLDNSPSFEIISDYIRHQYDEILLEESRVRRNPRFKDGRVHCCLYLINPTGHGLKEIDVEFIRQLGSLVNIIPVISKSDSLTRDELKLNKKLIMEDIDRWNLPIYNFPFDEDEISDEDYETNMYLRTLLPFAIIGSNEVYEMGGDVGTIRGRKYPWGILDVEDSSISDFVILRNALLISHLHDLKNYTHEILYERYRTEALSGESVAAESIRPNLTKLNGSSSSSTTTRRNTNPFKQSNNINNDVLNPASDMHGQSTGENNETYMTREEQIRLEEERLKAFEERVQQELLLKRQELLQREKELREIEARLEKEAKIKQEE
T2 sequence (P32468 whole entry, chain 2 of 4, the tested form may be a part): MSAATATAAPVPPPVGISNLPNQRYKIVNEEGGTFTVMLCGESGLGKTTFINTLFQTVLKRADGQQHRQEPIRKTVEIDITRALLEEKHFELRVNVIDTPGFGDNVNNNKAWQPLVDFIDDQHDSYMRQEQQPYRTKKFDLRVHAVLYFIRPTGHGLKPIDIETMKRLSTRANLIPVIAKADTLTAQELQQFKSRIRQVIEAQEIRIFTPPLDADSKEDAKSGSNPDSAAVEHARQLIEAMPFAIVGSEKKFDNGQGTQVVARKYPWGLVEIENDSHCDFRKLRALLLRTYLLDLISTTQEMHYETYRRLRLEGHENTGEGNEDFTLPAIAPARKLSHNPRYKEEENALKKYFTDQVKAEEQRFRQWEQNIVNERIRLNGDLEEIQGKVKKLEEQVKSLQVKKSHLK
T2 sequence (P32457 whole entry, chain 3 of 4, the tested form may be a part): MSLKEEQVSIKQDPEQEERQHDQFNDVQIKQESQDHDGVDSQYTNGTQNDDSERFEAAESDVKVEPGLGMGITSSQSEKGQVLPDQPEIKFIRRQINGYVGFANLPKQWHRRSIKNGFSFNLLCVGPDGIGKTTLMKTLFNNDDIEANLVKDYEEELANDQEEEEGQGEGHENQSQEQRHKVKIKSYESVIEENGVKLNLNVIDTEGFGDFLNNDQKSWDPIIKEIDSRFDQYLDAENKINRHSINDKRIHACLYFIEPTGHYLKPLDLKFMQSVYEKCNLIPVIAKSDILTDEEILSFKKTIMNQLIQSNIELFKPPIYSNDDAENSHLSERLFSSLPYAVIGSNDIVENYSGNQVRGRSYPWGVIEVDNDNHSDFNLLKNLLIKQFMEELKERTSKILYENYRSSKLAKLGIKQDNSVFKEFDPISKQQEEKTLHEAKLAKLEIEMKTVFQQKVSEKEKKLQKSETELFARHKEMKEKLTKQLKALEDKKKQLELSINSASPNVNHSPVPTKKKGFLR
T2 sequence (P25342 whole entry, chain 4 of 4, the tested form may be a part): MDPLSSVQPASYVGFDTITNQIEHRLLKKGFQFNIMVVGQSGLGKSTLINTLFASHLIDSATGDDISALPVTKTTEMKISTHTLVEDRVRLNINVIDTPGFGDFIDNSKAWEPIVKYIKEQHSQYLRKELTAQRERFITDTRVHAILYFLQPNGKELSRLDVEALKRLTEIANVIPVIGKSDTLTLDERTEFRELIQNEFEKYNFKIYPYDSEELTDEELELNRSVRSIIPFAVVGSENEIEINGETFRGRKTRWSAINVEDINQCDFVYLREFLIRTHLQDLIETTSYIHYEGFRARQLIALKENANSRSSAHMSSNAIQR

binding result [1]	binding result [2]	Binder	binding result [3]
binds	binds	GST-Bni5-Ext-HR2 (GST-Bni5(306-393)) (domain or fragment, S. cerevisiae, UniProt P53890 306-393, looked up, Bni5, S. cerevisiae, residues 306-393 (Ext plus helical region HR2); also called GST-Ext-HR2; pGEX-4T-1-Bni5(306-393); source: E. coli Rosetta DE3, purified (Glutathione Sepharose 4B); kept on the resin for pull-downs, eluted with glutathione for the septin filament assay; not shown: GST, N-terminal, kept) QKKMANFETRRPTNPFRVISVSSNSNSRNGSRKSSLNKYDSPVSSPITSASELGSIAKLEKRHDYLSMKCIKLQKEIDYLNKMNAQGS	–
binds	binds	GST-Bni5-Ext-HR2-HR3 (GST-Bni5(306-448)) (domain or fragment, S. cerevisiae, UniProt P53890 306-448, looked up, Bni5, S. cerevisiae, residues 306-448 (Ext, HR2 and HR3); also called GST-Ext-HR2-HR3; pGEX-4T-1-Bni5(306-448); source: E. coli Rosetta DE3, purified (Glutathione Sepharose 4B); kept on the resin for pull-downs, eluted with glutathione for the septin filament assay; not shown: GST, N-terminal, kept) QKKMANFETRRPTNPFRVISVSSNSNSRNGSRKSSLNKYDSPVSSPITSASELGSIAKLEKRHDYLSMKCIKLQKEIDYLNKMNAQGSLSMEDGKRLHRAVVKLQEYLDKKTKEKYEVGVLLSRHLRKQIDRGENGQFWIGTK	binds
